Experiments:
Saccharomyces cerevisiae [1] = experiment: protein stability index of tFT-peptide fusion in wild type (PSI (0-1 scale)); higher = more stable (slower turnover); conditions: genetic background: wild type
Description: (§1)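 MPS profiling in S. cerevisiae of two library types built from selected 12-aa C-degron peptides (IN1, IN2, LN1, LN3, VN2, R1-R5, W1-W3, Atg1 and Rpa12 C-termini): saturation mutagenesis libraries and C-terminal +1 capping libraries (13 aa). Each peptide is fused to the C-terminus of a sfGFP-mCherry timer, after a GGGS linker. Cells are FACS-sorted into 8 mCherry/sfGFP bins and sequenced. PSI runs from 0 (unstable) to 1 (stable), measured once in wild type and in the das1Δ or doa10Δ background.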

Saccharomyces cerevisiae [2] = experiment: protein stability index of tFT-peptide fusion in deletion strain of DOA10 (PSI (0-1 scale)); higher = more stable (slower turnover)
Description: as §1
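Throughout, for protein stability index of tFT-peptide fusion in deletion strain of DOA10: PSI per variant is the weighted mean of its sequencing read distribution over the sorted stability bins, counting only variants with over 10 reads summed across bins.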
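Throughout, for protein stability index of tFT-peptide fusion in wild type: PSI derived as read-weighted mean over the 8 sorting bins, only variants exceeding 10 total reads kept, mCherry placed adjacent to the peptide and sfGFP distal.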

| Sequence | protein stability index (Saccharomyces cerevisiae [1]) | protein stability index (Saccharomyces cerevisiae [2]) |
| --- | --- | --- |
| CLVSLDILLFFR | 0.265 | 0.355 |
| AITCPMCPLLLR | 0.297 | 0.643 |
| CLVSLPIALFFR | 0.0824 | 0.631 |
| RSLRVLLPLYFN | 0.107 | 0.165 |
| RVMRLDAIYFRI | 0.302 | 0.656 |
| RVTTLDAIYFRI | 0.524 | 0.661 |
| RSLRVLLCLYFR | 0.306 | 0.471 |
| GLYMCSVMCWFR | 0.263 | 0.383 |
| GLYMCSVGCWTR | 0.555 | 0.601 |
| RSLRVLLPLYFE | 0.524 | 0.64 |
| CLDSLPILLFFR | 0.214 | 0.664 |
| RSLRVLLPLSFR | 0.401 | 0.673 |
| AITLPMKPLLLR | 0.297 | 0.659 |
| CLVSLPILLFFRF | 0.0553 | 0.483 |
| RSLRFLLPLYFR | 0.322 | 0.632 |
| CLVSLPILLFFRA | 0.0659 | 0.475 |
| APTLPMCPLLLR | 0.29 | 0.664 |
| GLYMCSVGLWFR | 0.184 | 0.534 |
| AITLPMCRLLLR | 0.27 | 0.651 |

| Sequence | protein stability index (Saccharomyces cerevisiae [1]) | protein stability index (Saccharomyces cerevisiae [2]) |
| --- | --- | --- |
| RVTRLLAIYFRI | 0.155 | 0.287 |
| RSLRVLLPLYFF | 0.364 | 0.502 |
| RVTKLDAIYFRI | 0.483 | 0.667 |
| AITLPMCSLLLR | 0.212 | 0.656 |
| CLVSLPILLFFT | 0.248 | 0.528 |
| AITLPMCPPLLR | 0.546 | 0.663 |
| GFYMCSVGCWFR | 0.204 | 0.632 |
| AITMPMCPLLLR | 0.285 | 0.677 |
| RVTRLDYIYFRI | 0.179 | 0.538 |
| RSMRVLLPLYFR | 0.257 | 0.653 |
| CLVSLWILLFFR | 0.149 | 0.365 |
| CLVSLPILLFPR | 0.628 | 0.654 |
| CLVSLPILLFFF | 0.304 | 0.42 |
| GLYMCRVGCWFR | 0.291 | 0.638 |
| RVTRLDAIYFDI | 0.7 | 0.734 |
| AITLPVCPLLLR | 0.229 | 0.652 |
| RSLRSLLPLYFR | 0.469 | 0.702 |
| RSLRNLLPLYFR | 0.465 | 0.687 |
| GVTRLDAIYFRI | 0.229 | 0.69 |

| Sequence | protein stability index (Saccharomyces cerevisiae [1]) | protein stability index (Saccharomyces cerevisiae [2]) |
| --- | --- | --- |
| AITLCMCPLLLR | 0.487 | 0.665 |
| CLNSLPILLFFR | 0.109 | 0.627 |
| AITLDMCPLLLR | 0.346 | 0.68 |
| RVTRLDAIYMRI | 0.382 | 0.71 |
| CLVELPILLFFR | 0.0526 | 0.625 |
| AMTLPMCPLLLR | 0.223 | 0.646 |
| AITLPMCPLLLRC | 0.0981 | 0.381 |
| GLYMCSVGCVFR | 0.561 | 0.627 |
| RVTWLDAIYFRI | 0.323 | 0.656 |
| RQTRLDAIYFRI | 0.505 | 0.703 |
| AITLVMCPLLLR | 0.547 | 0.679 |
| CLYSLPILLFFR | 0.0509 | 0.586 |
| GLYMCVVGCWFR | 0.217 | 0.354 |
| GLHMCSVGCWFR | 0.214 | 0.682 |
| DVTRLDAIYFRI | 0.481 | 0.739 |
| RVTRLDAIYFRIY | 0.123 | 0.242 |
| MLYMCSVGCWFR | 0.328 | 0.604 |
| RVTRLDAIRFRI | 0.616 | 0.652 |
| RVTRLDAIYWRI | 0.385 | 0.684 |

— the supplement of paper PMC10724198
